Like-named read-outs stand apart in the source and are kept apart here. *1 amine or outer side, *2 acyl side, *3 side chain or, on linkers, in order; H or OH if unused. Where a SMILES comes first, the peptide text is derived from it. Bridges are numbered along the chain shown (N, C = ends). [ ]: non-standard residue; d: D form. The star is where a group is joined. TATA = O=C(CC[*:1])N1CN(C(=O)CC[*:2])CN(C(=O)CC[*:3])C1; NOTA = O=C(O)CN1CCN(CC(=O)O)CCN(CC(=O)*)CC1; Hyp = O=C(O)[C@@H]1C[C@@H](O)CN1; hArg = N=C(N)NCCCC[C@H](N)C(=O)O; Pen = CC(C)(S)[C@H](N)C(=O)O; βAla = NCCC(=O)O; Sar = CNCC(=O)O
Tests used:
in vivo = settings: nude, mouse, iv, 11.1 MBq, total radioactivity
Protocol: The tissue distribution characteristics of the compounds in PC-3 tumor-bearing mice were studied by using the PC-3 tumor-bearing mice model, small animal PET/CT scans were performed at different time points after a single intravenous administration of the compounds, tumors and other regions of interest were delineated to obtain radioactive uptake values.
Tumor cells in the logarithmic growth phase were used for in vivo tumor inoculation. PC-3 cells were suspended in saline at a density of 5×10^6/mL, and a total of 15 nude mice were inoculated under the right flank at 0.1 mL per inoculation point. Imaging and biodistribution experiments were performed when tumors grew to 300-600 mm^3 (tumor volume measurement method: the long diameter and short diameter of the tumor were measured, and its volume calculation formula was: volume=0.5× major diameter× minor diameter^2). The drug was distributed according to the animal dose on the drug distribution table, and a certain volume of compound diluent was absorbed by a 1 mL insulin syringe, and the initial radioactive dose and initial dosimetry time were recorded. The injection time, residual radioactivity dose, and residual dose determination time were recorded after tail vein injection in tumor-bearing mice. […] PET/CT scans of animals were performed at different time points after administration. During the scanning process, the animals continued to inhale 1-2% isoflurane to maintain the anesthetic effect, and the scanning time was recorded. […] After the completion of PET/CT scanning, the images were reconstructed and the images and data were processed with the software of the device. The tumor, heart (including contents), kidney, intestine, and muscle were delineated as regions of interest. The percentage injection dose rate per gram of tissue in the area of interest (% ID/g) was obtained. The data of biological distribution was expressed as the percentage of radioactive count per gram of tissue or organ to the total dose (radioactive count) (% ID/g).
Data for each sampling point were expressed as the mean standard deviation (mean SD) of 3 tumor-bearing mice.

PC-3 tumor-bearing mice = settings: 4 h, dissected tissue uptake ratio;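 further: dissected tissues were weighed and their radioactivity counted, uptake given as percent of administered dose per gram, tissue ratios derived from these values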
Protocol: In vivo radiobiological distribution assay: mice in the PET/CT imaging group were sacrificed immediately after the end of 4 h imaging, and mice in the inhibition group were sacrificed after 1 h imaging. Tissue samples of tumor, blood, heart, lung, liver, spleen, kidney, stomach, intestine, bone, muscle, and brain were collected by dissection, weighed and their radioactive counts were recorded. The probe uptake value in each tissue and organ of each experimental animal is expressed as radioactivity per gram of tissue as a percentage of the dose administered (% ID/g).

[1] = tumor and heart (including contents)

CC(C)C[C@@H]1NC(=O)[C@@H]2CSCCC(=O)N3CN(CN(C3)C(=O)CCSC(C)(C)[C@@H](C(N)=O)NC(=O)[C@H](CCCCNC(=N)N)NC(=O)[C@H](Cc3c[nH]c4ccccc34)NC(=O)[C@@H](CC(=O)O)NC(=O)[C@@H]3CCCN3C(=O)[C@H](Cc3c[nH]cn3)NC1=O)C(=O)CCSC[C@H](NC(=O)[C@@H]1CC(=O)NCCCC[C@H](NC(=O)CN(C)C(=O)CN(C)C(=O)CN(C)C(=O)CN(C)C(=O)CN(C)C(=O)CN(C)C(=O)CN(C)C(=O)CN(C)C(=O)CN(C)C(=O)CN(C)C(=O)CCNC(=O)CN3CCN(CC(=O)O)CCN(CC(=O)O)CC3)C(=O)N[C@@H](CCCCNC(=N)N)C(=O)N1)C(=O)N1C[C@H](O)C[C@H]1C(=O)N[C@@H](CC(C)C)C(=O)N[C@@H](C(C)C)C(=O)N[C@@H](CC(N)=O)C(=O)N1CCC[C@H]1C(=O)N[C@@H](CC(C)C)C(=O)N2 [Example 3] ({NOTA-βAla}-[Sar][Sar][Sar][Sar][Sar][Sar][Sar][Sar][Sar][Sar]K[hArg]DC[Hyp]LVNPLCLHP[dD]W[hArg][Pen]-NH2; lactam 11-13; linker 14-21-28 via TATA)
tissue uptake at 8 min (in vivo; liver): 1.94 ± 0.35 %ID/g | tissue uptake at 11 min (in vivo; liver): 1.6 ± 0.23 %ID/g | tissue uptake at 14 min (in vivo; liver): 1.44 ± 0.23 %ID/g | tissue uptake at 17 min (in vivo; liver): 1.23 ± 0.15 %ID/g | tissue uptake at 20 min (in vivo; liver): 1.14 ± 0.14 %ID/g | tissue uptake at 23 min (in vivo; liver): 1.07 ± 0.14 %ID/g | tissue uptake at 26 min (in vivo; liver): 0.97 ± 0.16 %ID/g | tissue uptake at 29 min (in vivo; liver): 0.91 ± 0.1 %ID/g | tissue uptake at 0.5 h (in vivo; liver): 0.92 ± 0.07 %ID/g | tissue uptake at 1 h (in vivo; liver): 0.59 ± 0.21 %ID/g | tissue uptake at 2 h (in vivo; liver): 0.22 ± 0.04 %ID/g | tissue uptake at 4 h (in vivo; liver): 0.13 ± 0.05 %ID/g | tissue uptake at 2 min (in vivo; muscle): 1.06 ± 0.1 %ID/g | tissue uptake at 5 min (in vivo; muscle): 1.02 ± 0.18 %ID/g | tissue uptake at 8 min (in vivo; muscle): 0.97 ± 0.16 %ID/g | tissue uptake at 11 min (in vivo; muscle): 0.91 ± 0.19 %ID/g | tissue uptake at 14 min (in vivo; muscle): 0.82 ± 0.12 %ID/g | tissue uptake at 17 min (in vivo; muscle): 0.74 ± 0.13 %ID/g | tissue uptake at 20 min (in vivo; muscle): 0.69 ± 0.11 %ID/g | tissue uptake at 23 min (in vivo; muscle): 0.66 ± 0.14 %ID/g | tissue uptake at 26 min (in vivo; muscle): 0.67 ± 0.16 %ID/g | tissue uptake at 29 min (in vivo; muscle): 0.56 ± 0.11 %ID/g | tissue uptake at 0.5 h (in vivo; muscle): 0.55 ± 0.15 %ID/g | tissue uptake at 1 h (in vivo; muscle): 0.26 ± 0.05 %ID/g | tissue uptake at 2 h (in vivo; muscle): 0.07 ± 0.02 %ID/g | tissue uptake at 4 h (in vivo; muscle): 0.03 ± 0.01 %ID/g | tissue to tissue ratio at 0.5 h (in vivo; [1]): 1.23 ± 0.25 | tissue to tissue ratio at 1 h (in vivo; [1]): 2.08 ± 0.74 | tissue to tissue ratio at 2 h (in vivo; [1]): 6.97 ± 3.01 | tissue to tissue ratio at 4 h (in vivo; [1]): 15.9 ± 5.85 | tissue to tissue ratio at 0.5 h (in vivo; tumor and kidney): 0.12 ± 0.01 | tissue to tissue ratio at 1 h (in vivo; tumor and kidney): 0.13 ± 0.03 | tissue to tissue ratio at 2 h (in vivo; tumor and kidney): 0.12 ± 0.06 | tissue to tissue ratio at 0.5 h (in vivo; tumor and liver): 1.57 ± 0.14 | tissue to tissue ratio at 1 h (in vivo; tumor and liver): 2.24 ± 0.68 | tissue to tissue ratio at 2 h (in vivo; tumor and liver): 4.53 ± 1.44 | tissue to tissue ratio at 0.5 h (in vivo; tumor and muscle): 2.69 ± 0.47 | tissue to tissue ratio at 1 h (in vivo; tumor and muscle): 5.01 ± 0.82 | tissue to tissue ratio at 2 h (in vivo; tumor and muscle): 15.6 ± 3.52 | tissue to tissue ratio at 4 h (in vivo; tumor and muscle): 31.4 ± 9.05 | tissue uptake at 2 min (in vivo; tumor): 1.37 ± 0.21 %ID/g | tissue uptake at 5 min (in vivo; tumor): 1.41 ± 0.13 %ID/g | tissue uptake at 8 min (in vivo; tumor): 1.45 ± 0.13 %ID/g | tissue uptake at 11 min (in vivo; tumor): 1.46 ± 0.09 %ID/g | tissue uptake at 14 min (in vivo; tumor): 1.46 ± 0.07 %ID/g | tissue uptake at 17 min (in vivo; tumor): 1.48 ± 0.08 %ID/g | tissue uptake at 20 min (in vivo; tumor): 1.51 ± 0.13 %ID/g | tissue uptake at 23 min (in vivo; tumor): 1.46 ± 0.09 %ID/g | tissue uptake at 26 min (in vivo; tumor): 1.46 ± 0.13 %ID/g | tissue uptake at 29 min (in vivo; tumor): 1.45 ± 0.14 %ID/g | tissue uptake at 0.5 h (in vivo; tumor): 1.43 ± 0.13 %ID/g | tissue uptake at 1 h (in vivo; tumor): 1.27 ± 0.28 %ID/g | tissue uptake at 2 h (in vivo; tumor): 1.04 ± 0.45 %ID/g | tissue uptake at 4 h (in vivo; tumor): 0.98 ± 0.46 %ID/g | Tumor/blood (PC-3 tumor-bearing mice; mouse S1): 24.89 | Tumor/bone (PC-3 tumor-bearing mice; mouse S1): 4.39 | Tumor/brain (PC-3 tumor-bearing mice; mouse S1): 44.40 | Tumor/heart (PC-3 tumor-bearing mice; mouse S1): 16.45 | Tumor/intestine (PC-3 tumor-bearing mice; mouse S1): 12.02 | Tumor/kidney (PC-3 tumor-bearing mice; mouse S1): 0.08 | Tumor/liver (PC-3 tumor-bearing mice; mouse S1): 7.63 | Tumor/lung (PC-3 tumor-bearing mice; mouse S1): 10.25 | Tumor/muscle (PC-3 tumor-bearing mice; mouse S1): 11.01 | Tumor/spleen (PC-3 tumor-bearing mice; mouse S1): 7.58 | Tumor/stomach (PC-3 tumor-bearing mice; mouse S1): 22.84 | Tumor/blood (PC-3 tumor-bearing mice; mouse S2): 3.88 | Tumor/bone (PC-3 tumor-bearing mice; mouse S2): 1.30 | Tumor/brain (PC-3 tumor-bearing mice; mouse S2): 40.18 | Tumor/heart (PC-3 tumor-bearing mice; mouse S2): 7.47 | Tumor/intestine (PC-3 tumor-bearing mice; mouse S2): 7.64 | Tumor/kidney (PC-3 tumor-bearing mice; mouse S2): 0.04 | Tumor/liver (PC-3 tumor-bearing mice; mouse S2): 4.34 | Tumor/lung (PC-3 tumor-bearing mice; mouse S2): 4.78 | Tumor/muscle (PC-3 tumor-bearing mice; mouse S2): 2.89 | Tumor/spleen (PC-3 tumor-bearing mice; mouse S2): 4.03 | Tumor/stomach (PC-3 tumor-bearing mice; mouse S2): 14.71 | Tumor/blood (PC-3 tumor-bearing mice; mouse S3): 36.90 | Tumor/bone (PC-3 tumor-bearing mice; mouse S3): 7.02 | Tumor/brain (PC-3 tumor-bearing mice; mouse S3): 91.90 | Tumor/heart (PC-3 tumor-bearing mice; mouse S3): 30.12 | Tumor/intestine (PC-3 tumor-bearing mice; mouse S3): 27.31 | Tumor/kidney (PC-3 tumor-bearing mice; mouse S3): 0.10 | Tumor/liver (PC-3 tumor-bearing mice; mouse S3): 8.30 | Tumor/lung (PC-3 tumor-bearing mice; mouse S3): 19.01 | Tumor/muscle (PC-3 tumor-bearing mice; mouse S3): 19.97 | Tumor/spleen (PC-3 tumor-bearing mice; mouse S3): 10.00 | Tumor/stomach (PC-3 tumor-bearing mice; mouse S3): 34.54

Source: US20240366811A1, “RA[…] P[…] USES THEREOF” (TIANJIN CONJUSTAR BIOLOGICS CO., LTD., priority 2023, published 2024)
